Measured values reported in patent publication US20110300138A1 (published 2011).
Read-outs that look alike come from different tables or passages of the source.

Columns and labels:
[1] = biological target: TSHR260-alkaline phosphatase (TSHR260-AP) (human) (UniProt P05187); assay: TSHR260-AP bridge ELISA, full length TSHR on wells; 0.01 µg/mL, diluted in HBD
TSHR260-AP (human) [2] = assay: TSHR260-AP bridge ELISA (full length TSHR on wells, TSHR260-AP in solution); IgG 0.05 µg/mL diluted in assay buffer
TSHR260-AP (human) [3] = assay: TSHR260-AP bridge ELISA (full length TSHR on wells, TSHR260-AP in solution); IgG 250 µg/mL diluted in assay buffer
[4] = biological target: TSHR260-alkaline phosphatase (TSHR260-AP) (human) (UniProt P05187); assay: TSHR260-AP bridge ELISA, full length TSHR on wells; 100 µg/mL, diluted in HBD
TSHR260-AP (human) [5] = assay: TSHR260-AP bridge ELISA (full length TSHR on wells, TSHR260-AP in solution); IgG 0.1 µg/mL diluted in HBD serum
[6] = biological target: TSHR260-alkaline phosphatase (TSHR260-AP) (human) (UniProt P05187); assay: TSHR260-AP bridge ELISA, full length TSHR on wells; 10 µg/mL, diluted in assay buffer
TSHR260-AP (human) [7] = assay: TSHR260-AP bridge ELISA (full length TSHR on wells, TSHR260-AP in solution); IgG 0.1 µg/mL diluted in assay buffer
[8] = biological target: TSHR260-alkaline phosphatase (TSHR260-AP) (human) (UniProt P05187); assay: TSHR260-AP bridge ELISA, full length TSHR on wells; 250 µg/mL, diluted in HBD
[9] = biological target: human TSHR (thyroid stimulating hormone receptor) expressed in transfected CHO cells (human) (UniProt P16473); assay: cell-based or functional assay
TSHR260-AP (human) [10] = assay: TSHR260-AP bridge ELISA (full length TSHR on wells, TSHR260-AP in solution); IgG 1 µg/mL diluted in HBD serum
[11] = biological target: TSHR260-alkaline phosphatase (TSHR260-AP) (human) (UniProt P05187); assay: TSHR260-AP bridge ELISA, full length TSHR on wells; 0.01 µg/mL, diluted in assay buffer
TSHR260-AP (human) [12] = assay: TSHR260-AP bridge ELISA (full length TSHR on wells, TSHR260-AP in solution); IgG 0.005 µg/mL diluted in assay buffer
[13] = biological target: TSHR260-alkaline phosphatase (TSHR260-AP) (human) (UniProt P05187); assay: TSHR260-AP bridge ELISA, full length TSHR on wells; 0.5 µg/mL, diluted in assay buffer
[14] = biological target: TSHR260-alkaline phosphatase (TSHR260-AP) (human) (UniProt P05187); assay: TSHR260-AP bridge ELISA, full length TSHR on wells; 0.5 µg/mL, diluted in HBD
[15] = biological target: TSHR260-alkaline phosphatase (TSHR260-AP) (human) (UniProt P05187); assay: TSHR260-AP bridge ELISA, full length TSHR on wells; 1 µg/mL, diluted in HBD
TSHR260-AP (human) [16] = assay: TSHR260-AP bridge ELISA (full length TSHR on wells, TSHR260-AP in solution); IgG 0.01 µg/mL diluted in assay buffer
[17] = biological target: TSHR260-alkaline phosphatase (TSHR260-AP) (human) (UniProt P05187); assay: TSHR260-AP bridge ELISA, full length TSHR on wells; 250 µg/mL, diluted in assay buffer
TSHR260-AP (human) [18] = assay: TSHR260-AP bridge ELISA (full length TSHR on wells, TSHR260-AP in solution); IgG 0.05 µg/mL diluted in HBD serum
[19] = biological target: TSHR260-alkaline phosphatase (TSHR260-AP) (human) (UniProt P05187); assay: TSHR260-AP bridge ELISA, full length TSHR on wells; 1 µg/mL, diluted in assay buffer
TSHR260-AP (human) [20] = assay: TSHR260-AP bridge ELISA (full length TSHR on wells, TSHR260-AP in solution); IgG 0.5 µg/mL diluted in HBD serum
TSHR260-AP (human) [21] = assay: TSHR260-AP bridge ELISA (full length TSHR on wells, TSHR260-AP in solution); IgG 10 µg/mL diluted in HBD serum
[22] = biological target: human TSH receptor (full length, wild type) expressed in CHO cells (human) (UniProt P16473); assay: cell-based or functional assay
[23] = biological target: human TSH receptor (full length, wild type) expressed in CHO cells (human) (UniProt P16473); assay: cell-based or functional assay; remark: listed apart in the source
[24] = biological target: human TSHR (wild type, full length) expressed in CHO cells (human) (UniProt P16473); assay: cell-based or functional assay

M22 IgG (antibody)
Mean absorbance at 405 nm (absorbance at 405 nm) [1]: 0.03
Mean absorbance at 405 nm (absorbance at 405 nm) (TSHR260-AP (human) [2]): 0.484
Mean absorbance at 405 nm (absorbance at 405 nm) (TSHR260-AP (human) [3]): 1.01
Mean absorbance at 405 nm (absorbance at 405 nm) [4]: 0.851
Mean absorbance at 405 nm (absorbance at 405 nm) (TSHR260-AP (human) [5]): 0.365
Mean absorbance at 405 nm (absorbance at 405 nm) [6]: 0.872
Mean absorbance at 405 nm (absorbance at 405 nm) (TSHR260-AP (human) [7]): 0.653
Mean absorbance at 405 nm (absorbance at 405 nm) [8]: 0.833
Cyclic AMP concentration; 3 ng/mL M22 IgG [9]: 21.3 pmol/mL
Mean absorbance at 405 nm (absorbance at 405 nm) (TSHR260-AP (human) [10]): 0.726
Mean absorbance at 405 nm (absorbance at 405 nm) [11]: 0.101
Mean absorbance at 405 nm (absorbance at 405 nm) (TSHR260-AP (human) [12]): 0.075
Mean absorbance at 405 nm (absorbance at 405 nm) [13]: 0.776
Mean absorbance at 405 nm (absorbance at 405 nm) [14]: 0.657
Mean absorbance at 405 nm (absorbance at 405 nm) [15]: 0.726
Mean absorbance at 405 nm (absorbance at 405 nm) (TSHR260-AP (human) [16]): 0.101
Mean absorbance at 405 nm (absorbance at 405 nm) [17]: 1.01
Mean absorbance at 405 nm (absorbance at 405 nm) (TSHR260-AP (human) [18]): 0.204
Mean absorbance at 405 nm (absorbance at 405 nm) [19]: 0.821
Mean absorbance at 405 nm (absorbance at 405 nm) (TSHR260-AP (human) [20]): 0.657
Mean absorbance at 405 nm (absorbance at 405 nm) (TSHR260-AP (human) [21]): 0.796

B1: 5C9 IgG (antibody, from another filing, V domains shown)
VH: EVQLVESGGGLIQPGGSLRLSCAASGFTVSSNYMSWVRQAPGKGLEWVSVTYSGGSTSYADSVKGRFTISRDNSKNTLYLQMNSLRAEDTAVYYCARGGRYCSSISCYARSGCDYWGQGTLVTVSS
VL: AIQMTQSPSSLSASVGDRVTITCRASQSISNYLNWYQQKPGKAPKLLIYAASSLQSGVPSRFSGSGSGTDFTLTISSLQPEDFATYYCQQSYSSPSTTFGQGTKLEIK
% Inhibition; T10 serum + 100 µg/mL 5C9 IgG [22]: 98.4%
% Inhibition; T11 serum + 100 µg/mL 5C9 IgG [22]: 8.5%
% Inhibition; T12 serum + 100 µg/mL 5C9 IgG [22]: 96.3%
Cyclic AMP concentration; 100 µg/mL 5C9 IgG alone [22]: 0.9 pmol/mL
Cyclic AMP concentration; HBD + 100 µg/mL 5C9 IgG [22]: 1.1 pmol/mL
Cyclic AMP concentration; T10 serum + 100 µg/mL 5C9 IgG [22]: 0.9 pmol/mL
Cyclic AMP concentration; T11 serum + 100 µg/mL 5C9 IgG [22]: 37.5 pmol/mL
Cyclic AMP concentration; T12 serum + 100 µg/mL 5C9 IgG [22]: 1.6 pmol/mL
Mean absorbance at 405 nm (absorbance at 405 nm) [1]: 0.017
Mean absorbance at 405 nm (absorbance at 405 nm) (TSHR260-AP (human) [2]): -0.008
Mean absorbance at 405 nm (absorbance at 405 nm) (TSHR260-AP (human) [3]): 1.12
Mean absorbance at 405 nm (absorbance at 405 nm) [4]: 0.027
% Inhibition; T7 serum + 100 µg/mL 5C9 IgG [23]: 97.7%
% Inhibition; T8 serum + 100 µg/mL 5C9 IgG [23]: 97.9%
% Inhibition; T9 serum + 100 µg/mL 5C9 IgG [23]: 94.7%
Cyclic AMP concentration; HBD + 100 µg/mL 5C9 IgG [23]: 2.7 pmol/mL
Cyclic AMP concentration; T7 serum + 100 µg/mL 5C9 IgG [23]: 2.1 pmol/mL
Cyclic AMP concentration; T8 serum + 100 µg/mL 5C9 IgG [23]: 1.8 pmol/mL
Cyclic AMP concentration; T9 serum + 100 µg/mL 5C9 IgG [23]: 3 pmol/mL
Mean absorbance at 405 nm (absorbance at 405 nm) (TSHR260-AP (human) [5]): -0.005
% Inhibition of T8 serum stimulation; 0.01 µg/mL 5C9 IgG [24]: 0%
% Inhibition of T8 serum stimulation; 0.1 µg/mL 5C9 IgG [24]: 91%
% Inhibition of T8 serum stimulation; 1 µg/mL 5C9 IgG [24]: 96%
% Inhibition of T8 serum stimulation; 10 µg/mL 5C9 IgG [24]: 97%
% Inhibition of T8 serum stimulation; 100 µg/mL 5C9 IgG [24]: 97%
Cyclic AMP concentration; 0.01 µg/mL 5C9 IgG + T8 [24]: 53.7 pmol/mL
Cyclic AMP concentration; 0.1 µg/mL 5C9 IgG + T8 [24]: 4.6 pmol/mL
Cyclic AMP concentration; 1 µg/mL 5C9 IgG + T8 [24]: 2.2 pmol/mL
Cyclic AMP concentration; 10 µg/mL 5C9 IgG + T8 [24]: 1.7 pmol/mL
Cyclic AMP concentration; 100 µg/mL 5C9 IgG + T8 [24]: 1.7 pmol/mL
Cyclic AMP concentration; 100 µg/mL 5C9 IgG alone [24]: 1.2 pmol/mL
Mean absorbance at 405 nm (absorbance at 405 nm) [6]: 0.099
Mean absorbance at 405 nm (absorbance at 405 nm) (TSHR260-AP (human) [7]): -0.013
Mean absorbance at 405 nm (absorbance at 405 nm) [8]: 0.058
Mean absorbance at 405 nm (absorbance at 405 nm) (TSHR260-AP (human) [10]): 0.045
Mean absorbance at 405 nm (absorbance at 405 nm) [11]: -0.001
Mean absorbance at 405 nm (absorbance at 405 nm) (TSHR260-AP (human) [12]): -0.009
Mean absorbance at 405 nm (absorbance at 405 nm) [13]: -0.005
Mean absorbance at 405 nm (absorbance at 405 nm) [14]: 0.016
Mean absorbance at 405 nm (absorbance at 405 nm) [15]: 0.045
Mean absorbance at 405 nm (absorbance at 405 nm) (TSHR260-AP (human) [16]): -0.001
Mean absorbance at 405 nm (absorbance at 405 nm) [17]: 1.12
Mean absorbance at 405 nm (absorbance at 405 nm) (TSHR260-AP (human) [18]): -0.003
Mean absorbance at 405 nm (absorbance at 405 nm) [19]: 0.011
Mean absorbance at 405 nm (absorbance at 405 nm) (TSHR260-AP (human) [20]): 0.016
Mean absorbance at 405 nm (absorbance at 405 nm) (TSHR260-AP (human) [21]): 0.004
